Experiments:
[1] = target: HLA-A*0301 (human); assay: inhibition of 125I-labelled probe peptide binding to purified HLA-A*0301, gel filtration; ratio to standard peptide 941.12 ([..], 11 nM); conditions: remark: other sources report otherwise
[2] = target: HLA-A*0101 (purified HLA class I molecule) (human); assay: competition with 125I-labelled standard peptide on purified HLA-A*0101, gel filtration; conditions: remark: other sources report otherwise
[3] = target: HLA-A*0101 (human); assay: competition with 125I-labelled probe peptide for purified HLA-A*0101, gel filtration; relative to standard peptide; conditions: remark: other sources report otherwise
[4] = target: HLA-A*1101 (human); assay: inhibition of 125I-labelled probe peptide binding to purified HLA-A*1101, gel filtration; conditions: remark: other sources report otherwise
[5] = target: HLA-A*0101 (human); assay: competition with 125I-labelled probe peptide for purified HLA-A*0101, gel filtration; conditions: remark: other sources report otherwise; scale: ratio
[6] = target: HLA-A*0101 (human); assay: competition with 125I-labelled probe peptide for purified HLA-A*0101, gel filtration; ratio = IC50 of standard peptide 944.02 / IC50 of test peptide; conditions: remark: other sources report otherwise
[7] = target: HLA-A*1101 (human); assay: competition with 125I-labelled probe peptide for purified HLA-A*1101, gel filtration; standard peptide 940.06 [..] (6.0 nM); conditions: remark: other sources report otherwise; scale: ratio
[8] = target: HLA-A*0301 (human); assay: inhibition of 125I-labelled probe peptide binding to purified HLA-A*0301, gel filtration; ratio to standard peptide 941.12 [..] (11 nM); conditions: remark: other sources report otherwise
[9] = target: HLA-A*1101 (human); assay: competitive inhibition of 125I-labeled probe peptide binding to purified HLA-A*1101, gel filtration; conditions: remark: other sources report otherwise; scale: ratio
[10] = target: T1, HLA-DR3 (DRB1*0301) (human); assay: competition binding assay, purified HLA, 125I-labelled probe peptide, gel filtration; conditions: remark: other sources report otherwise
T1 chain 1: not shown
T1 chain 2: not shown

[11] = target: T1, HLA-DR3 (DRB1*0301) (human); assay: competition with 125I-labelled probe peptide on purified HLA-DR, gel filtration; IC50 of standard peptide / IC50 of test peptide; conditions: remark: other sources report otherwise
[12] = target: T2, HLA-DR7 (DRB1*0701) (human); assay: as above; conditions: remark: other sources report otherwise
T2 chain 1: not shown
T2 chain 2: not shown

[13] = target: T3, HLA-DR4w4 (DRB1*0401) (human); assay: as above; conditions: remark: other sources report otherwise
T3 chain 1: not shown
T3 chain 2: not shown

[14] = target: T4, HLA-DRB1*0301 (human); assay: competition with 125I-labeled standard peptide, purified HLA-DR, gel filtration; conditions: remark: other sources report otherwise
T4 chain 1: not shown
T4 chain 2: not shown

[15] = target: HLA-A*6802 (human); assay: competition with 125I-labelled probe peptide for purified HLA, gel filtration; conditions: remark: other sources report otherwise
[16] = target: HLA-A*6802 (human); assay: competition for purified HLA vs 125I-labelled probe peptide, gel filtration; conditions: remark: other sources report otherwise
[17] = target: HLA-A*0201 (human); assay: competitive inhibition of 125I-labeled probe peptide binding to purified HLA-A*0201; conditions: remark: other sources report otherwise
[18] = target: T5, HLA-DR2w2β1 (DRB1*1501) (human); assay: competition binding assay, purified HLA, 125I-labelled probe peptide, gel filtration; conditions: remark: other sources report otherwise
T5 chain 1: not shown
T5 chain 2: not shown

[19] = target: T6, HLA-DR6w19 (DRB1*1302) (human); assay: as above; conditions: remark: other sources report otherwise
T6 chain 1: not shown
T6 chain 2: not shown

[20] = target: T7, HLA-DR5w11 (DRB1*1101) (human); assay: as above; conditions: remark: other sources report otherwise
T7 chain 1: not shown
T7 chain 2: not shown

[21] = target: HLA-A*6802 (human); assay: competition with 125I probe peptide for purified HLA; conditions: remark: other sources report otherwise
[22] = target: HLA-A*0201 (human); assay: competition for purified HLA vs 125I-labelled probe peptide, gel filtration; conditions: remark: other sources report otherwise
[23] = target: HLA-A*3101 (human); assay: competition with 125I-labelled standard peptide for purified HLA; gel filtration; conditions: remark: other sources report otherwise
[24] = target: HLA-B*5301 (human); assay: competition vs 125I-labeled standard peptide, purified HLA; conditions: remark: other sources report otherwise
[25] = target: HLA-B*5401 (human); assay: as above; conditions: remark: other sources report otherwise
[26] = target: T8, HLA-DRB1*0701 (human); assay: inhibition of 125I probe peptide binding to purified HLA-DR, gel filtration; conditions: remark: other sources report otherwise
T8 chain 1: not shown
T8 chain 2: not shown

[27] = target: T9, HLA-DRB1*0101 (human); assay: as above; conditions: remark: other sources report otherwise
T9 chain 1: not shown
T9 chain 2: not shown

[28] = target: T8, HLA-DRB1*0701 (human); assay: competition with 125I probe peptide, purified HLA; conditions: remark: other sources report otherwise
[29] = target: T9, HLA-DRB1*0101 (human); assay: competition with 125I probe peptide, purified HLA; conditions: remark: other sources report otherwise
[30] = target: T9, HLA-DRB1*0101 (human); assay: competition with 125I-labelled standard peptide, purified HLA-DR, gel filtration; conditions: remark: other sources report otherwise
[31] = target: T10, HLA-DRB1*1101 (human); assay: inhibition of 125I probe peptide binding to purified HLA-DR, gel filtration; conditions: remark: other sources report otherwise
T10 chain 1: not shown
T10 chain 2: not shown

[32] = target: T10, HLA-DRB1*1101 (human); assay: competition with 125I-labelled standard peptide, purified HLA-DR, gel filtration; conditions: remark: other sources report otherwise
[33] = target: T11, HLA-DRB1*1302 (human); assay: inhibition of 125I probe peptide binding to purified HLA-DR, gel filtration; conditions: remark: other sources report otherwise
T11 chain 1: not shown
T11 chain 2: not shown

[34] = target: HLA-A*0201 (human); assay: inhibition of 125I-labelled probe peptide binding to purified HLA, gel filtration; conditions: remark: other sources report otherwise; scale: ratio
[35] = target: T12, HLA-DR3 (human); assay: competitive inhibition of 125I-labeled probe peptide binding to purified HLA-DR3; conditions: remark: other sources report otherwise
T12 chain 1: not shown
T12 chain 2: not shown

[36] = target: HLA-B*0702 (human); assay: competition with 125I-labelled probe peptide for purified HLA, gel filtration; conditions: scale: ratio

Work on FSPAFDNLYY [HER2/neu peptide, position 1213, 10 amino acids] yielded a relative binding ratio (IC50 of standard peptide / IC50 of test peptide) [1] of 0.0005, a relative binding ratio (IC50 of standard peptide / IC50 of test peptide) [2] of 5.5 and a relative binding ratio (IC50 of standard peptide / IC50 of test peptide) (relative binding ratio) [3] of 5.5. It also gave a relative binding ratio (IC50 of standard peptide / IC50 of test peptide) (relative binding ratio) [4] of 0.001 and a relative binding ratio [5] of 5.5.

FTHQSDVWSY [HER2/neu peptide, position 899, 10 amino acids] showed a relative binding ratio (IC50 of standard peptide / IC50 of test peptide) [1] of 0.0003, a relative binding ratio [6] of 2.7 and a relative binding ratio (IC50 of standard peptide / IC50 of test peptide) (relative binding ratio) [3] of 2.7. For the same binder, the relative binding ratio (IC50 of standard peptide / IC50 of test peptide) (relative binding ratio) [4] was 0.0005 and the relative binding ratio [5] was 2.7.

Work on LLDIDETEY [HER2/neu peptide, position 869, 9 amino acids] yielded a relative binding ratio [7] of 0.0001, a relative binding ratio (IC50 of standard peptide / IC50 of test peptide) [8] of 0.0003 and a relative binding ratio [6] of 7.6. The relative binding ratio (IC50 of standard peptide / IC50 of test peptide) (relative binding ratio) [3] was 7.6 and the relative binding ratio [5] was 7.6.

CMQIAKGMSY [HER2/neu peptide, position 826, 10 amino acids] gave a relative binding ratio [9] of 0.0001, a relative binding ratio (IC50 of standard peptide / IC50 of test peptide) [2] of 0.3 and a relative binding ratio (IC50 of standard peptide / IC50 of test peptide) (relative binding ratio) [3] of 0.3. It also gave a relative binding ratio [5] of 0.3.

CYGLGMEHLREVRAV [HER2/neu peptide … (position 342)] gave a relative binding ratio (ratio to standard peptide) [10] of 0.0083 and a relative binding ratio [11] of 0.0083.

Work on FRELVSEFSRMARDP [HER2/neu peptide … (position 969)] yielded a relative binding ratio (ratio to standard peptide) [10] of 0.071 and a relative binding ratio [11] of 0.071.

GVTVWELMTFGAKPY [HER2/neu peptide … (position 909)] gave a relative binding ratio [12] of 0.017 and a relative binding ratio [13] of 0.033.

PESFDGDPASNTAPL [HER2/neu DR supermotif exemplary peptide … (position 378)] showed a relative binding ratio (ratio (standard IC50 / test IC50)) [14] of -0.0027.

VVLGVVFGI [Her2/neu.665] was tested, and the IC50 [15] was 2 µM, the IC50 [16] was 2 µM and the IC50 [17] was less than 0.5 µM.

CWMIDSECRPRFREL [HER2/neu peptide … (position 958)] gave a relative binding ratio (ratio to standard peptide) [18] of -0.0006, a relative binding ratio (ratio to standard peptide) [19] of -0.0001 and a relative binding ratio (ratio to standard peptide) [20] of -0.0008.

Work on VVLGVVFGI [Her2/neu.665 …] yielded an IC50 [21] of 2 µM.

Binder CLTSTVQLV [Her2/neu.789 …] has an IC50 [21] of 8 µM.

VMAGVGSPYV [Her2/neu.773] gave an IC50 [22] of 0.2 µM and an IC50 [17] of less than 0.5 µM.

With CLTSTVQLV [Her2/neu.789] the IC50 [16] was 8 µM and the IC50 [17] was less than 0.5 µM.

Work on LLDHVRENR [Her2/neu.806] yielded an IC50 [23] of 0.5 µM.

With LVARNVLVK (modifications not checked) [Her2/neu.846.V2] the IC50 [23] was 9 µM.

KPYDGIPA [Her2/neu.921, 8-mer] was tested, and the IC50 [24] was 0.49 µM and the IC50 [25] was 0.029 µM.

LSVFQNLQVIRGRIL [Her2/neu.422] showed an IC50 [26] of 0.086 µM, an IC50 [27] of 0.028 µM and an IC50 [28] of 0.086 µM. For the same binder, the IC50 [29] was 0.028 µM.

SRLLGICLTSTVQLV [Her2/neu.783] gave an IC50 [27] of 0.014 µM, an IC50 [30] of 0.014 µM and an IC50 [29] of 0.014 µM.

Binder TVQLVTQLMPYGCLL [Her2/neu.793] has an IC50 [26] of 2.5 µM, an IC50 [27] of 0.022 µM and an IC50 [28] of 2.5 µM. For the same binder, the IC50 [29] was 0.022 µM.

In the case of VWELMTFGAKPYDGI [Her2/neu.912], the IC50 [31] is reported as 3.7 µM, the IC50 [27] is reported as 0.058 µM and the IC50 [32] is reported as 3.7 µM. For the same binder, the IC50 [30] was 0.058 µM and the IC50 [29] was 0.058 µM.

ASPLTSIISAVVGIL [Her2/neu.648] gave an IC50 [33] of 0.073 µM.

For VLGVVFGILIKRRQQ [Her2/neu.666], the IC50 [31] was 0.043 µM and the IC50 [32] was 0.043 µM.

With ETELRKVKVLGSGAF [Her2/neu.717] the IC50 [33] was 2.5 µM.

TLQGLGISWL [HER2/neu peptide, position 444, 10 amino acids] showed a relative binding ratio [34] of 0.0011.

TLSPGKNGV [HER2/neu peptide, position 1172, 9 amino acids] showed a relative binding ratio [34] of 0.0002.

With VLVKSPNHV [HER2/neu peptide, position 851, 9 amino acids] the relative binding ratio [34] was 0.0002.

In the case of WDQLFRNPHQALLHT [Her2/neu.482], the IC50 [35] is reported as less than 1 µM.

GPKHSDCLA [HER2/neu peptide, position 246, 9 amino acids] was tested, and the relative binding ratio ([36]; remark: other sources report otherwise) was 0.0001.

LPQPPICTIDV (modifications not checked) [HER2/neu peptide, position 941, 11 amino acids] was tested, and the relative binding ratio [36] was 0.0032.
